Experimental data as given in publication PMC12107432 (Nucleic Acids Research, 2025).
Substitutions are numbered along the chain they refer to. Names may count otherwise. “And” between values parts separate entries of the source, which are not always exact repeats. Equal values may be shown once. Read-outs that look alike come from different tables or passages of the source.

Experiments:
[1] = target: YhaM ortholog of Staphylococcus aureus (SaYhaM) (Staphylococcus aureus); experiment: SEC
mass photometry [2] = target: the molecule itself; experiment: mass photometry
mass photometry [3] = target: the molecule itself; experiment: mass photometry; remark: listed apart in the source
mass photometry [4] = target: the molecule itself; experiment: mass photometry; remark: listed apart in the source
YhaM (BsYhaM) = target: T1, YhaM (BsYhaM) (Bacillus subtilis (strain DK1042 / NCIB …, UniProt O07521 1-314)); experiment: BLI
T1 sequence: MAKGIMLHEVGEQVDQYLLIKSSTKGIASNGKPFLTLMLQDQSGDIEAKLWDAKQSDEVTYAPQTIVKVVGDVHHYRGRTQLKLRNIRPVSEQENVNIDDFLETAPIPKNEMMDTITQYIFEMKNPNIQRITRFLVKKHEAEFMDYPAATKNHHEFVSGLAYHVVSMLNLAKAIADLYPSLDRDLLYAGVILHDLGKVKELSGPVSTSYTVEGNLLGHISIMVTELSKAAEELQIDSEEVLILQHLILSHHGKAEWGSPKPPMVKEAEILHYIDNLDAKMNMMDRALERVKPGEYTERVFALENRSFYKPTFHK

YhaM H193A/D194A = target: T2, YhaM H193A/D194A (Bacillus subtilis, UniProt O07521 1-314, H193A;D194A); experiment: BLI
T2 sequence: T1 sequence with H193A, D194A

YhaM dimers = target: T3, YhaM dimers (Bacillus subtilis, UniProt O07521 1-314); experiment: BLI
T3 sequence: T1 sequence

“YhaM ortholog of Staphylococcus aureus (SaYhaM) (enzyme)” was tested, and the stoichiometry N [1] was 6.

B1: YhaM W51A (Bacillus subtilis), OB domain variant (enzyme, UniProt O07521 1-314, looked up)
chain: T1 sequence with W51A
With B1 the “stoichiometry N” value (mass photometry [2]) was 2 and the “stoichiometry N” value (mass photometry [3]) was 6.

B2: YhaM Y76A (Bacillus subtilis), OB domain variant (enzyme, UniProt O07521 1-314, looked up)
chain: T1 sequence with Y76A
In the case of B2, the “stoichiometry N” value (mass photometry [3]) is reported as 6.

B3: YhaM H193A/D194A (Bacillus subtilis), HD motif variant (enzyme, UniProt O07521 1-314, looked up)
chain: T1 sequence with H193A, D194A
In the case of B3, the “stoichiometry N” value (mass photometry [3]) is reported as 4 and 6 and the “stoichiometry N” value (mass photometry [4]) is reported as 2.

B4: Bli DNA 40-nt (ssDNA)
DNA: GTTAATTAAGTTTTAACCTTTAAGCTGTAATAGGGAGTTT
B4: binds (YhaM (BsYhaM)); binds (YhaM H193A/D194A).

B5: ssDNA loop (ssDNA)
DNA: TTTTTTTTTTTTTTTTTTTTTTCCCACAACAAGTCCAACGCAAACGGCCACCCCCCCAACAACAATTTTT
B5: binds (YhaM dimers).
